Bridges are numbered along the chain shown (N, C = ends). Where no end group is shown, it is not given here.
Target: human Low Density Lipoprotein receptor (hLDL-R) (human, UniProt P01130 22-860)
Experiment: cell-based or functional assay

human Low Density Lipoprotein receptor (hLDL-R), sequence (P01130 22-860): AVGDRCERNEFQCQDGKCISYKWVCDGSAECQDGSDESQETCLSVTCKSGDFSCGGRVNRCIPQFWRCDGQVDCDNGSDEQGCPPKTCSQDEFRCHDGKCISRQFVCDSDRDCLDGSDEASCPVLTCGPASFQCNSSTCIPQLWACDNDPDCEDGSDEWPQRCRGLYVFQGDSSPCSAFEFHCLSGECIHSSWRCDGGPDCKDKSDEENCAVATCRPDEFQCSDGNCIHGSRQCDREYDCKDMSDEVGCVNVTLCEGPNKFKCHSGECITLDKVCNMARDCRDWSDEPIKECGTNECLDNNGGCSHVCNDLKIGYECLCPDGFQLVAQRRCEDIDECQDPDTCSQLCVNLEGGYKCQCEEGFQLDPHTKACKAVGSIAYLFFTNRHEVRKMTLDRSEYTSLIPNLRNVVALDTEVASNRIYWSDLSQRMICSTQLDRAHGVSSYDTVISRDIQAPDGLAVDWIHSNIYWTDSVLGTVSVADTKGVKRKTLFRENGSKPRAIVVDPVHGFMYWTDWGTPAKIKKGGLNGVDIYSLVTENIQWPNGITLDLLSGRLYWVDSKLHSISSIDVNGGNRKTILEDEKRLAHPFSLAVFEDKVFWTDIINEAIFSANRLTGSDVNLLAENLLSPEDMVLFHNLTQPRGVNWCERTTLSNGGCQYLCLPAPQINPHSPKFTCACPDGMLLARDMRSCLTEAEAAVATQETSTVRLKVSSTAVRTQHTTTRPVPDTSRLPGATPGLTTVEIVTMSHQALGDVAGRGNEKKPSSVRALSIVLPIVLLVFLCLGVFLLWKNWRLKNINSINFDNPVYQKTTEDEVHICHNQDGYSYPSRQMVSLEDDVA

B1: CP3 (Loop-3 peptide), S-S bridged cyclic hPCSK9 365-384 (peptide)
peptide: GEDIIGASSDCSTCFVSQSG
modifications: disulfide 11-14
With B1 the “LDL-R level in HepG2 cells (western blot, relative to TR), CP3 at 50 µM” value was roughly 3.5 fold.

From patent US20180023071A1 (PRONASCI, published 2018)
